Patent US20250276077A1, “EPHA2 ANTIBODIES” (Immunome, Inc., priority 2022, published 2025)

Experiments:
[1] = target: Human EphA2 (ephrin receptor A2), native, in human tumor tissue (human) (UniProt P29317); experiment: IF tumor tissue Uterine, 3 ug/ml
[2] = target: Human EphA2 (ephrin receptor A2), native, in human tumor tissue (human) (UniProt P29317); experiment: IF tumor tissue URO, 0.1 ug/ml
[3] = target: Human EphA2 (ephrin receptor A2), native, in human tumor tissue (human) (UniProt P29317); experiment: IF tumor tissue MELA, 10 ug/ml
[4] = target: Human EphA2 (ephrin receptor A2), native, in human tumor tissue (human) (UniProt P29317); experiment: IF tumor tissue MELA, 1 ug/ml
[5] = target: Human EphA2 (ephrin receptor A2), native, in human tumor tissue (human) (UniProt P29317); experiment: IF tumor tissue ESO, 1 ug/ml
[6] = target: Human EphA2 (ephrin receptor A2), native, in human tumor tissue (human) (UniProt P29317); experiment: IF tumor tissue URO, 3 ug/ml
[7] = target: Human EphA2 (ephrin receptor A2), native, in human tumor tissue (human) (UniProt P29317); experiment: IF tumor tissue MELA, 0.1 ug/ml
[8] = target: Human EphA2 (ephrin receptor A2), native, in human tumor tissue (human) (UniProt P29317); experiment: tissue staining of human cancer samples, 3 ug/ml
[9] = target: Human EphA2 (ephrin receptor A2), native, in human tumor tissue (human) (UniProt P29317); experiment: IF tumor tissue URO, 30 ug/ml
[10] = target: Human EphA2 (ephrin receptor A2), native, in human tumor tissue (human) (UniProt P29317); experiment: IF tumor tissue Uterine, 0.1 ug/ml
[11] = target: Human EphA2 (ephrin receptor A2), native, in human tumor tissue (human) (UniProt P29317); experiment: IF tumor tissue URO, 0.3 ug/ml
[12] = target: Human EphA2 (ephrin receptor A2), native, in human tumor tissue (human) (UniProt P29317); experiment: IF tumor tissue NSCLC-Adeno, 1 ug/ml
[13] = target: Human EphA2 (ephrin receptor A2), native, in human tumor tissue (human) (UniProt P29317); experiment: IF tumor tissue STS, 10 ug/ml
[14] = target: Human EphA2 (ephrin receptor A2), native, in human tumor tissue (human) (UniProt P29317); experiment: IF tumor tissue PANC, 0.1 ug/ml
[15] = target: Human EphA2 (ephrin receptor A2), native, in human tumor tissue (human) (UniProt P29317); experiment: IF tumor tissue ESO, 0.1 ug/ml
[16] = target: Human EphA2 (ephrin receptor A2), native, in human tumor tissue (human) (UniProt P29317); experiment: IF tumor tissue RCC-papillary, 30 ug/ml
[17] = target: Human EphA2 (ephrin receptor A2), native, in human tumor tissue (human) (UniProt P29317); experiment: IF tumor tissue Uterine, 10 ug/ml
[18] = target: Human EphA2 (ephrin receptor A2), native, in human tumor tissue (human) (UniProt P29317); experiment: IF tumor tissue ESO, 3 ug/ml
[19] = target: Human EphA2 (ephrin receptor A2), native, in human tumor tissue (human) (UniProt P29317); experiment: IF tumor tissue STS, 0.1 ug/ml
[20] = target: Human EphA2 (ephrin receptor A2), native, in human tumor tissue (human) (UniProt P29317); experiment: IF tumor tissue NSCLC-Adeno, 0.1 ug/ml
[21] = target: Human EphA2 (ephrin receptor A2), native, in human tumor tissue (human) (UniProt P29317); experiment: IF tumor tissue RCC-papillary, 0.3 ug/ml
[22] = target: Human EphA2 (ephrin receptor A2), native, in human tumor tissue (human) (UniProt P29317); experiment: tissue staining of human cancer samples, 10 ug/ml
[23] = target: Human EphA2 (ephrin receptor A2), native, in human tumor tissue (human) (UniProt P29317); experiment: IF tumor tissue PANC, 0.3 ug/ml
[24] = target: Human EphA2 (ephrin receptor A2), native, in human tumor tissue (human) (UniProt P29317); experiment: IF tumor tissue ESO, 30 ug/ml
[25] = target: Human EphA2 (ephrin receptor A2), native, in human tumor tissue (human) (UniProt P29317); experiment: IF tumor tissue MELA, 30 ug/ml
[26] = target: Human EphA2 (ephrin receptor A2), native, in human tumor tissue (human) (UniProt P29317); experiment: IF tumor tissue NSCLC-Adeno, 30 ug/ml
[27] = target: Human EphA2 (ephrin receptor A2), native, in human tumor tissue (human) (UniProt P29317); experiment: IF tumor tissue PANC, 30 ug/ml
[28] = target: Human EphA2 (ephrin receptor A2), native, in human tumor tissue (human) (UniProt P29317); experiment: IF tumor tissue NSCLC-Adeno, 3 ug/ml
[29] = target: Human EphA2 (ephrin receptor A2), native, in human tumor tissue (human) (UniProt P29317); experiment: IF tumor tissue NSCLC-SQ, 0.1 ug/ml
[30] = target: Human EphA2 (ephrin receptor A2), native, in human tumor tissue (human) (UniProt P29317); experiment: IF tumor tissue RCC-papillary, 3 ug/ml
[31] = target: Human EphA2 (ephrin receptor A2), native, in human tumor tissue (human) (UniProt P29317); experiment: IF tumor tissue MELA, 0.3 ug/ml

Chain of Human EphA2 (ephrin receptor A2), native, in human tumor tissue (human) (P29317 25-976): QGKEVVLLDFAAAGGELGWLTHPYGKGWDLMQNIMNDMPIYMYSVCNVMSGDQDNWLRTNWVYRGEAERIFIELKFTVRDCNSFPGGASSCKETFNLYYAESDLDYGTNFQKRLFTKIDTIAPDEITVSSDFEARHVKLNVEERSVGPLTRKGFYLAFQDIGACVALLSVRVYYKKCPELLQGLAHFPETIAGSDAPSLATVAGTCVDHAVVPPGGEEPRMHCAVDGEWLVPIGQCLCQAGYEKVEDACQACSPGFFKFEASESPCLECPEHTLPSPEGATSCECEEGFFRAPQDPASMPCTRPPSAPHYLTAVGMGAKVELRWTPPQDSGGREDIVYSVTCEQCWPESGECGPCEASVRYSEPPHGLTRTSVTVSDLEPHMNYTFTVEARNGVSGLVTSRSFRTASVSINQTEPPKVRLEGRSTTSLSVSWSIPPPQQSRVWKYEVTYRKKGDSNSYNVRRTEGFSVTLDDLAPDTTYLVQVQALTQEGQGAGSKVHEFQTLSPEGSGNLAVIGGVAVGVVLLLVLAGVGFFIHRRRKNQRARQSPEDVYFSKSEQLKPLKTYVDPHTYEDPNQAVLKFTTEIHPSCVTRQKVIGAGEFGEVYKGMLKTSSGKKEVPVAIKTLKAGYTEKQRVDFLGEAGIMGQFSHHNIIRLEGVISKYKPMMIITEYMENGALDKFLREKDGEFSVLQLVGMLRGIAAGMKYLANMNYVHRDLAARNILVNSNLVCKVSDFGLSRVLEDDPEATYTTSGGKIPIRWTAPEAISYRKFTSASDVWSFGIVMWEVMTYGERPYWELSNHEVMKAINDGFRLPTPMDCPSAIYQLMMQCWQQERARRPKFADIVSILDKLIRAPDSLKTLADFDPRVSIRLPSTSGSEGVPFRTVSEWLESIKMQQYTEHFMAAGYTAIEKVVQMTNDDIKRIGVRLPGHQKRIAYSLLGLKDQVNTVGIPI

- tissue reactivity score [1]: 2
- tissue reactivity score [2]: 2
- tissue reactivity score [3]: 2
- tissue reactivity score [4]: 2
- tissue reactivity score [5]: 1
- tissue reactivity score [6]: 2
- tissue reactivity score [7]: 1
- Reactive (% of samples), Bladder Urothelial Carcinoma [8]: 77%
- Reactive (% of samples), Breast Cancer [8]: 93%
- Reactive (% of samples), Cervical Squamous Cell Carcinoma [8]: 75%
- Reactive (% of samples), Colorectal Adenocarcinoma [8]: 85%
- Reactive (% of samples), Head & Neck Squamous Cell Carcinoma [8]: 63%
- Reactive (% of samples), Liver Hepatocellular Cell Carcinoma [8]: 39%
- Reactive (% of samples), Melanoma [8]: 46%
- Reactive (% of samples), Ovarian Cancer [8]: 71%
- Reactive (% of samples), Soft Tissue Sarcoma [8]: 14%
- Reactive (% of samples), Stomach Adenocarcinoma [8]: 88%
- Reactive (% of samples), Testicular Cancer [8]: 17%
- Reactive (% of samples), Thyroid Cancer [8]: 13%
- Reactive (% of samples), Uterine Cancer [8]: 38%
- tissue reactivity score [9]: 2
- tissue reactivity score [10]: 1
- tissue reactivity score [11]: 2
- tissue reactivity score [12]: 1
- tissue reactivity score [13]: 1
- tissue reactivity score [14]: 2
- tissue reactivity score [15]: 1
- tissue reactivity score [16]: 2
- tissue reactivity score [17]: 2
- tissue reactivity score [18]: 1
- tissue reactivity score [19]: 1
- tissue reactivity score [20]: 1
- tissue reactivity score [21]: 1
- Reactive (% of samples), Bladder Cancer (Urothelial) [22]: 86%
- Reactive (% of samples), Breast Cancer [22]: 79%
- Reactive (% of samples), Cervical Cancer (Squamous) [22]: 100%
- Reactive (% of samples), Esophageal Cancer (Squamous) [22]: 33%
- Reactive (% of samples), Head & Neck Cancer (Squamous) [22]: 87%
- Reactive (% of samples), Liver Cancer (HCC) [22]: 82%
- Reactive (% of samples), Non-Small Cell Lung Cancer [22]: 90%
- Reactive (% of samples), Ovarian Cancer [22]: 88%
- Reactive (% of samples), Renal Cancer [22]: 47%
- Reactive (% of samples), Soft Tissue Sarcoma [22]: 20%
- Reactive (% of samples), Stomach Cancer (Adenocarcinoma) [22]: 88%
- Reactive (% of samples), Testicular Cancer [22]: 56%
- Reactive (% of samples), Thyroid Cancer [22]: 31%
- Reactive (% of samples), Uterine Cancer [22]: 92%
- tissue reactivity score [23]: 2
- tissue reactivity score [24]: 2
- tissue reactivity score [25]: 2
- tissue reactivity score [26]: 1
- tissue reactivity score [27]: 2
- tissue reactivity score [28]: 1
- tissue reactivity score [29]: 1
- tissue reactivity score [30]: 2
- tissue reactivity score [31]: 2
Substance: AB-010018 (mouse monoclonal antibody precursor of DS-8895a; mouse IgG2a format)
